Source: patent publication US11994512B2, “Single-cell genomic methods to generate ex vivo cell systems that recapitulate in vivo biology with improved fidelity” (Massachusetts Institute of Technology, priority 2018, dated 2024)

B1: Q9CQU5 (protein, UniProt Q9CQU5 1-252, looked up)
chain: MADAEKNAVAEKNNAVATKEVLAEAAAILEPVGLQEEAELPAKIMEEFMRNSRKKDKLLCSQLQVVNFLQTFLAQEDTEQSPDALASEDASRQKATETKEQWKDMKATYMDHVDVIKCALSEALPQVKEAHRKYTELQKAFEQLEAKKRVLEEKLQLAQKQWVLQQKRLQNLTKISAEVKRRRKRALEKLDGSHQELETLKQQAGQEQEKLQRNQSYLQLLCSLQNKLVISEGKAEDKDVKGRALTAKSKSP
modifications: full-length
B2: Q9CXC3 (protein, UniProt Q9CXC3 1-338, looked up)
chain: MKLPLTFCRLLSRLNRFSVKASPPVSFSTFSYLCSQKKKNSYEAVDQAKYSRLVRSVLSRGPAQTPESLFKEDDVLYGPVSKHKAAEPEPQARVPQHCFPIFNEERTGKPHTDASSSPLKIPLQRNSIPSVTRILQQTMPPEQSFFLERWKERMVLELGEDGFAEYTSNVFLQGKQFHKALESILSPQENLTGGEEHPQCGYIESIQHILTEISGVQALESAVQHEALKYVGLLDCVAEYRGKLCVIDWKTSEKPKPLIRNTYDNPLQVVAYMGAVNHDAHYSFQVQCGLIVVAYKDGSPAHPHFMDEELCSKYWAKWLLRLEEYTEKQKNLSAPEPA
modifications: full-length
B3: Q9CVI2 (protein, UniProt Q9CVI2 1-245, looked up)
chain: MGKRDNRVAYMNPIAMARSRGPIQSSGPTIQDYLNRPRPTWEEVKEQLEKKKKGSKALAEFEEKMNENWKKELEKHREKLLSGNESSSKKRQKKKKEKKKSGRYSSSSSSSSDSSSSSSDSEDEDKKQTKRRKKKKSRCHKSPESSGSDSASDSKDGSKKKKKSKDVTEREKDTKGLSKKRKMYEDKPLSSESLSESDCGEVQAKRKKSGEERERTTDKAKKRRKHKKHSKKKKKKAASSSSDSP
modifications: full-length
B4: Q9CXS4 (protein, UniProt Q9CXS4 1-252, looked up)
chain: MRRTRSAVATGPREQRRSGATGGLSGGESRAQRSRSRTRAGAGGGGGAVGPQPSAKPRPKPPPRAQEAAAEEPPPAVTPAASVSALDLGEQRERWETFQKRQRLSFEGAAKLLLDTFEYQGLVKHTGGCHCGAVRFEVWASADLHIFDCNCSICKKKQNRHFIVPASRFKLLKGAESITTYTFNTHKAQHTFCKRCGVQSFYTPRSNPGGFGIAPHCLDEGTVRSVVTEEFNGSDWERAMKEHKTIKNMSKE
modifications: full-length
B5: Q9CPY1 (protein, UniProt Q9CPY1 1-128, looked up)
chain: MAGSVPWAASRRLWGWVPSACRSFSLGVPRLAFVRLTLPPPKVVDRWNEKRALFGVYDNIGILGNFEKHPKELIKGPVWLRGWRGNELQRCVRKKKFVGNRMFIEDLHNLNKRISYLYKHFNRHGKYR
modifications: full-length
B6: Q9CWY4 (protein, UniProt Q9CWY4 1-129, looked up)
chain: MQSPLTIPVPVPVLRLPRGPDGFSRGFASDGRRTILRPEVGEGHIQDPPESQEQRARATLRERYLRSLLAMVGHPVSFTLHEGVHVTAQFGATDLDVANFYVSQLQTPIGVQAEALLRCSDIISYSFKL
modifications: full-length

system: intracellular proteome of ENR+CD and ENR organoids; test: LC-MS/MS TMT proteomics of ENR+CD versus ENR organoids; format: cell-based, C57BL/6 mice; conditions: ENR+CD versus ENR organoids, sample pairs in aggregate (n=4, 2 technical replicates from two biological donors)

Molecule	Average logFC
B1	−1.13
B2	−1.487
B3	−1.186
B4	−1.1404
B5	−1.278
B6	−1.168

same assay, conditions: protein abundance ratio ENR+CD versus ENR organoids, sample pair M1-1; LC-MS/MS TMT proteomics

Molecule	M1-1 Log2 Median Normalized
B1	−1.159
B2	−1.486
B3	−1.385
B4	−1.106
B5	−0.801
B6	−0.742

same assay, conditions: protein abundance ratio ENR+CD versus ENR organoids, sample pair M1-2; LC-MS/MS TMT proteomics

Molecule	M1-2 Log2 Median Normalized
B1	−0.699
B2	−0.854
B3	−1.072
B4	−1.141
B5	−0.766
B6	−0.855

same assay, conditions: protein abundance ratio ENR+CD versus ENR organoids, sample pair M2-1; LC-MS/MS TMT proteomics

Molecule	M2-1 Log2 Median Normalized
B1	−1.1625
B2	−1.7905
B3	−1.0115
B4	−0.9445
B5	−2.0015
B6	−1.6895

same assay, conditions: protein abundance ratio ENR+CD versus ENR organoids, sample pair M2-2; LC-MS/MS TMT proteomics

Molecule	M2-2 Log2 Median Normalized
B1	−1.13
B2	−1.7
B3	−1.275
B4	−1.649
B5	−1.543
B6	−1.387

same assay, conditions: up = enriched in ENR+CD, down = enriched in ENR; FDR<0.05 and log fold change cut-off

Molecule	change
B1	down
B2	down
B3	down
B4	down
B5	down
B6	down
